From article PMC5561112, “Thermodynamic and Kinetic Analyses of Iron Response Element (IRE)-mRNA Binding to Iron Regulatory Protein, IRP1”

T1: IRP1 (iron regulatory protein 1) (rabbit, UniProt Q01059 1-889)
T1 sequence: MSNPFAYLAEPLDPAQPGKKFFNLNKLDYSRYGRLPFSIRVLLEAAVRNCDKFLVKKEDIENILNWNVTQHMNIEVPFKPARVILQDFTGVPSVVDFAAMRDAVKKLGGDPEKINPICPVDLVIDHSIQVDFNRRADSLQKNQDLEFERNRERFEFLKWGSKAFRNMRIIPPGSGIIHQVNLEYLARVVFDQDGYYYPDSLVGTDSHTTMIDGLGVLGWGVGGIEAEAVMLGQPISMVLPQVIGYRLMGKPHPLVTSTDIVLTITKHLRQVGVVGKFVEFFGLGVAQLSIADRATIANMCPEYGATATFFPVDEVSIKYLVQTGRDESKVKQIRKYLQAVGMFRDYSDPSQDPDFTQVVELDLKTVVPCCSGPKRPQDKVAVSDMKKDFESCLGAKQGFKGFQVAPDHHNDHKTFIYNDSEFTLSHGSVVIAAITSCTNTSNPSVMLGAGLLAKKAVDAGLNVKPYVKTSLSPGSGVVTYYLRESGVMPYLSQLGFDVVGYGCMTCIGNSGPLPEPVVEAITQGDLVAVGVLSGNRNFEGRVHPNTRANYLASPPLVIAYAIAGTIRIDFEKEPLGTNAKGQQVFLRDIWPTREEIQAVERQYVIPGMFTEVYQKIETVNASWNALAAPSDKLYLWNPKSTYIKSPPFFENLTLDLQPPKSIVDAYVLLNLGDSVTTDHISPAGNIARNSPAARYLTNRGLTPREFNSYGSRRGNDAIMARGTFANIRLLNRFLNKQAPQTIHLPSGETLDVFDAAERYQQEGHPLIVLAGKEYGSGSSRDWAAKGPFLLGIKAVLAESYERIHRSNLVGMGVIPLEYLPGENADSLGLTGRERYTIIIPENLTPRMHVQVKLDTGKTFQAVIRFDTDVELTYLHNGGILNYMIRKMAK


How the values were obtained:
Details in all cases: protein: recombinant; label: 5' fluorescein; hairpin
[1] = molecular target: T1, IRP1 (iron regulatory protein 1); test: fluorescence anisotropy; 30 °C, no Mn2+; 40 mM HEPES pH 7.2, 100 mM KCl, 5-30 °C, ±50 µM Mn2+; labeled RNA 50 nM or 100 nM (Methods)
[2] = molecular target: T1, IRP1 (iron regulatory protein 1); test: fluorescence anisotropy; 10 °C, no Mn2+; 40 mM HEPES pH 7.2, 100 mM KCl, 5-30 °C, ±50 µM Mn2+; labeled RNA 50 nM or 100 nM (Methods)
[3] = molecular target: T1, IRP1 (iron regulatory protein 1); test: fluorescence anisotropy; 25 °C, no Mn2+; 40 mM HEPES pH 7.2, 100 mM KCl, 5-30 °C, ±50 µM Mn2+; labeled RNA 50 nM or 100 nM (Methods)
[4] = molecular target: T1, IRP1 (iron regulatory protein 1); test: fluorescence anisotropy; 5 °C, no Mn2+; 40 mM HEPES pH 7.2, 100 mM KCl, 5-30 °C, ±50 µM Mn2+; labeled RNA 50 nM or 100 nM (Methods)
[5] = molecular target: T1, IRP1 (iron regulatory protein 1); test: fluorescence anisotropy; 20 °C, no Mn2+; 40 mM HEPES pH 7.2, 100 mM KCl, 5-30 °C, ±50 µM Mn2+; labeled RNA 50 nM or 100 nM (Methods)
[6] = molecular target: T1, IRP1 (iron regulatory protein 1); test: fluorescence anisotropy; 15 °C, no Mn2+; 40 mM HEPES pH 7.2, 100 mM KCl, 5-30 °C, ±50 µM Mn2+; labeled RNA 50 nM or 100 nM (Methods)

| Binder | Kd [1] [nM] | Kd [2] [nM] | Kd [3] [nM] | Kd [4] [nM] | Kd [5] [nM] | Kd [6] [nM] |
| --- | --- | --- | --- | --- | --- | --- |
| GUUCUUGCUUCAACAGUGUUUGAACGGAAC (structured_RNA) [FRT IRE-RNA (ferritin IRE)] | 19.2 ± 0.4 | 7 ± 0.2 | 14.2 ± 0.3 | 4.6 ± 0.2 | 11.7 ± 0.4 | 8.6 ± 0.3 |
| CCUCAUCUUUGUCAGUGCACAAAAUGGCG (structured_RNA) [ACO2 IRE-RNA (mitochondrial aconitase IRE)] | 155 ± 4 | 69.6 ± 5 | 129 ± 3.3 | 55.9 ± 3 | 101 ± 7 | 89 ± 3 |
